Here are results for five sequences from the supplement of paper PMC5998384.

Data set [1] has as its system HeLa Kyoto. The data set is described as follows: solubility in G1/S (NP-40 vs SDS abundance) (log2 ratio); higher = more soluble. To be noted: cell cycle stage: G1/S.
For data set [2], the system named is HeLa Kyoto. Description: melting temperature (median over replicates), in situ; higher = more thermally stable.
For data set [3], the system named is HeLa Kyoto. The data set is described as follows: thermal stability score vs G1/S (z-score of summed log2 fold changes over temperatures); higher = more thermally stable than in G1/S.
Data set [4] relates to HeLa Kyoto. Description: solubility change mitosis vs G1/S (difference of NP-40 vs SDS log2 ratios) (log2 ratio difference); higher = more soluble in mitosis.
The mark [5] stands for this setting: cell cycle stage: early G1 (4.5 h after nocodazole release).
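Wherever melting temperature (median over replicates), in situ is given: HeLa Kyoto cells synchronized by double thymidine or nocodazole block, proteins quantified by TMT10plex mass spectrometry, three independent biological replicates.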
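Wherever solubility change mitosis vs G1/S (difference of NP-40 vs SDS log2 ratios) is given: synchronized HeLa Kyoto cells (double thymidine block for G1/S, nocodazole release for mitosis), protein amounts in NP-40 versus SDS lysates quantified by mass spectrometry, three biological replicates.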
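Wherever solubility in G1/S (NP-40 vs SDS abundance) is given: HeLa Kyoto cells arrested at G1/S by double thymidine block, proteins quantified by TMT10plex mass spectrometry in mild NP-40 versus SDS extracts, three biological replicates.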
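Wherever thermal stability score vs G1/S (z-score of summed log2 fold changes over temperatures) is given: synchronized HeLa Kyoto cells, proteins quantified by TMT10plex mass spectrometry, three biological replicates, mitosis taken 0.5 h after nocodazole release, G1/S directly after double thymidine block.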

As for “MAQRHSDSSLEEKLLGHRFHSELRLDAGGNPASGLPMVRGSPRVRDDAAFQPQVPAPPQPRPPGHEEPWPIVLSTESPAALKLGTQQLIPKSLAVASKAKTPARHQSFGAAVLSREAARRDPKLLPAPSFSLDDMDVDKDPGGMLRRNLRNQSYRAAMKGLGKPGGQGDAIQLSPKLQALAEEPSQPHTRSPAKNKKTLGRKRGHKGSFKDDPQLYQEIQERGLNTSQESDDDILDESSSPEGTQKVDATIVVKSYRPAQVTWSQLPEVVELGILDQLSTEERKRQEAMFEILTSEFSYQHSLSILVEEFLQSKELRATVTQMEHHHLFSNILDVLGASQRFFEDLEQRHKAQVLVEDISDILEEHAEKHFHPYIAYCSNEVYQQRTLQKLISSNAAFREALREIERRPACGGLPMLSFLILPMQRVTRLPLLMDTLCLKTQGHSERYKAASRALKAISKLVRQCNEGAHRMERMEQMYTLHTQLDFSKVKSLPLISASRWLLKRGELFLVEETGLFRKIASRPTCYLFLFNDVLVVTKKKSEESYMVQDYAQMNHIQVEKIEPSELPLPGGGNRSSSVPHPFQVTLLRNSEGRQEQLLLSSDSASDRARWIVALTHSERQWQGLSSKGDLPQVEITKAFFAKQADEVTLQQADVVLVLQQEDGWLYGERLRDGETGWFPEDFARFITSRVAVEGNVRRMERLRVETDV [ARHGEF16]”, the “solubility in G1/S (log2)” value in the data set with HeLa Kyoto [1] is -0.0605. Further, the melting temperature with HeLa Kyoto [2] (cell cycle stage: G1/S) was determined as 49.4 °C; with HeLa Kyoto [2] (cell cycle stage: mitosis), 49.5 °C. Moreover, the results for the thermal stability score in the data set with HeLa Kyoto [3] (setting [5]) and in the data set on HeLa Kyoto [3] (cell cycle stage: mitosis) were 0.0138 and 0.41, respectively. Moreover, in the data set with HeLa Kyoto [4], the “solubility change mitosis (log2)” value is -0.0697.

Turning to “MAQRMTTQLLLLLVWVAVVGEAQTRIAWARTELLNVCMNAKHHKEKPGPEDKLHEQCRPWRKNACCSTNTSQEAHKDVSYLYRFNWNHCGEMAPACKRHFIQDTCLYECSPNLGPWIQQVDQSWRKERVLNVPLCKEDCEQWWEDCRTSYTCKSNWHKGWNWTSGFNKCAVGAACQPFHFYFPTPTVLCNEIWTHSYKVSNYSRGSGRCIQMWFDPAQGNPNEEVARFYAAAMSGAGPWAAWPFLLSLALMLLWLLS [FOLR1]”, the “solubility in G1/S (log2)” value in the data set with HeLa Kyoto [1] was -0.325. The sequence further yielded a melting temperature in the data set with HeLa Kyoto [2] (cell cycle stage: G1/S) of 58.8 °C. The thermal stability score in the data set on HeLa Kyoto [3] (setting [5]) is -1.06; with HeLa Kyoto [3] (cell cycle stage: mitosis), -1.43. For the same sequence, the “solubility change mitosis (log2)” value with HeLa Kyoto [4] was 0.0281.

Regarding “MAQSLRLHFAARRSNTYPLSETSGDDLDSHVHMCFKRPTRISTSNVVQMKLTPRQTALAPLIKENVQSQERSSVPSSENVNKKSSCLQISLQPTRYSGYLQSSNVLADSDDASFTCILKDGIYSSAVVDNELNAVNDGHLVSSPAICSGSLSNFSTSDNGSYSSNGSDFGSCASITSGGSYTNSVISDSSSYTFPPSDDTFLGGNLPSDSTSNRSVPNRNTTPCEIFSRSTSTDPFVQDDLEHGLEIMKLPVSRNTKIPLKRYSSLVIFPRSPSTTRPTSPTSLCTLLSKGSYQTSHQFIISPSEIAHNEDGTSAKGFLSTAVNGLRLSKTICTPGEVRDIRPLHRKGSLQKKIVLSNNTPRQTVCEKSSEGYSCVSVHFTQRKAATLDCETTNGDCKPEMSEIKLNSDSEYIKLMHRTSACLPSSQNVDCQININGELERPHSQMNKNHGILRRSISLGGAYPNISCLSSLKHNCSKGGPSQLLIKFASGNEGKVDNLSRDSNRDCTNELSNSCKTRDDFLGQVDVPLYPLPTENPRLERPYTFKDFVLHPRSHKSRVKGYLRLKMTYLPKTSGSEDDNAEQAEELEPGWVVLDQPDAACHLQQQQEPSPLPPGWEERQDILGRTYYVNHESRRTQWKRPTPQDNLTDAENGNIQLQAQRAFTTRRQISEETESVDNRESSENWEIIREDEATMYSNQAFPSPPPSSNLDVPTHLAEELNARLTIFGNSAVSQPASSSNHSSRRGSLQAYTFEEQPTLPVLLPTSSGLPPGWEEKQDERGRSYYVDHNSRTTTWTKPTVQATVETSQLTSSQSSAGPQSQASTSDSGQQVTQPSEIEQGFLPKGWEVRHAPNGRPFFIDHNTKTTTWEDPRLKIPAHLRGKTSLDTSNDLGPLPPGWEERTHTDGRIFYINHNIKRTQWEDPRLENVAITGPAVPYSRDYKRKYEFFRRKLKKQNDIPNKFEMKLRRATVLEDSYRRIMGVKRADFLKARLWIEFDGEKGLDYGGVAREWFFLISKEMFNPYYGLFEYSATDNYTLQINPNSGLCNEDHLSYFKFIGRVAGMAVYHGKLLDGFFIRPFYKMMLHKPITLHDMESVDSEYYNSLRWILENDPTELDLRFIIDEELFGQTHQHELKNGGSEIVVTNKNKKEYIYLVIQWRFVNRIQKQMAAFKEGFFELIPQDLIKIFDENELELLMCGLGDVDVNDWREHTKYKNGYSANHQVIQWFWKAVLMMDSEKRIRLLQFVTGTSRVPMNGFAELYGSNGPQSFTVEQWGTPEKLPRAHTCFNRLDLPPYESFEELWDKLQMAIENTQGFDGVD [NEDD4]”, the “solubility in G1/S (log2)” value with HeLa Kyoto [1] is -0.127. Also, the values for the melting temperature in the data set with HeLa Kyoto [2] (cell cycle stage: G1/S) and with HeLa Kyoto [2] (cell cycle stage: mitosis) were 49.3 °C and 49.7 °C, respectively. The thermal stability score was -0.41 in the data set with HeLa Kyoto [3] (setting [5]) and 0.545 in the data set on HeLa Kyoto [3] (cell cycle stage: mitosis). In addition, in the data set on HeLa Kyoto [4], the “solubility change mitosis (log2)” value is -0.163.

For the sequence “MAQTLQMEIPNFGNSILECLNEQRLQGLYCDVSVVVKGHAFKAHRAVLAASSSYFRDLFNNSRSAVVELPAAVQPQSFQQILSFCYTGRLSMNVGDQFLLMYTAGFLQIQEIMEKGTEFFLKVSSPSCDSQGLHAEEAPSSEPQSPVAQTSGWPACSTPLPLVSRVKTEQQESDSVQCMPVAKRLWDSGQKEAGGGGNGSRKMAKFSTPDLAANRPHQPPPPQQAPVVAAAQPAVAAGAGQPAGGVAAAGGVVSGPSTSERTSPGTSSAYTSDSPGSYHNEEDEEEDGGEEGMDEQYRQICNMYTMYSMMNVGQTAEKVEALPEQVAPESRNRIRVRQDLASLPAELINQIGNRCHPKLYDEGDPSEKLELVTGTNVYITRAQLMNCHVSAGTRHKVLLRRLLASFFDRNTLANSCGTGIRSSTNDPRRKPLDSRVLHAVKYYCQNFAPNFKESEMNAIAADMCTNARRVVRKSWMPKVKVLKAEDDAYTTFISETGKIEPDMMGVEHGFETASHEGEAGPSAEALQ [NACC1]”, the “solubility in G1/S (log2)” value with HeLa Kyoto [1] is 0.142. Moreover, the melting temperature turned out to be 47.6 °C with HeLa Kyoto [2] (cell cycle stage: G1/S) and 49.4 °C in the data set with HeLa Kyoto [2] (cell cycle stage: mitosis). Besides, the thermal stability score with HeLa Kyoto [3] (setting [5]) was 3.55; in the data set on HeLa Kyoto [3] (cell cycle stage: mitosis), 6.42. The “solubility change mitosis (log2)” value in the data set with HeLa Kyoto [4] is -0.176.

With “MAQTVQNVTLSLTLPITCHICLGKVRQPVICINNHVFCSICIDLWLKNNSQCPACRVPITPENPCKEIIGGTSESEPMLSHTVRKHLRKTRLELLHKEYEDEIDCLQKEVEELKSKNLSLESQIKTILDPLTLVQGNQNEDKHLVTDNPSKINPETVAEWKKKLRTANEIYEKVKDDVDKLKEANKKLKLENGGLVRENLRLKAEVDNRSPQKFGRFAVAALQSKVEQYERETNRLKKALERSDKYIEELESQVAQLKNSSEEKEAMNSICQTALSADGKGSKGSEEDVVSKNQGDSARKQPGSSTSSSSHLAKPSSSRLCDTSSARQESTSKADLNCSKNKDLYQEQVEVMLDVTDTSMDTYLEREWGNKPSDCVPYKDEELYDLPAPCTPLSLSCLQLSTPENRESSVVQAGGSKKHSNHLRKLVFDDFCDSSNVSNKDSSEDDISRSENEKKSECFSSPKTGFWDCCSTSYAQNLDFESSEGNTIANSVGEISSKLSEKSGLCLSKRLNSIRSFEMNRTRTSSEASMDAAYLDKISELDSMMSESDNSKSPCNNGFKSLDLDGLSKSSQGSEFLEEPDKLEEKTELNLSKGSLTNDQLENGSEWKPTSFFLLSPSDQEMNEDFSLHSSSCPVTNEIKPPSCLFQTEFSQGILLSSSHRLFEDQRFGSSLFKMSSEMHSLHNHLQSPWSTSFVPEKRNKNVNQSTKRKIQSSLSSASPSKATKS [RNF219]”, in the data set with HeLa Kyoto [1], the “solubility in G1/S (log2)” value was -0.0524. The melting temperature in the data set on HeLa Kyoto [2] (cell cycle stage: G1/S) is 46.5 °C; in the data set with HeLa Kyoto [2] (cell cycle stage: mitosis), 49.3 °C. Also, the figures for the thermal stability score in the data set on HeLa Kyoto [3] (setting [5]) and in the data set on HeLa Kyoto [3] (cell cycle stage: mitosis) were 0.213 and 2.43, respectively. The “solubility change mitosis (log2)” value in the data set on HeLa Kyoto [4] was -0.0524.
